Measurements reported in patent publication US7339039B2, “Nucleic acids encoding receptor recognition factors, and methods of use thereof” (The Rockfeller University, priority 1992, dated 2008).

Test system: Stat84 and Stat91L homodimers
Experiment: Dissociation-reassociation analysis (gel mobility shift with GAS probe)
Assay type: biochemical, human
Conditions: GST fusion protein 0.5 to 5 μM
Procedure: Gel Mobility Shift Assays. Gel mobility shift assays were carried out as described (34). An oligonucleotide corresponding to the GAS element from the human FcγRI receptor gene (Pearse et al. 1993) was synthesized and used for gel mobility shift assays. The oligonucleotide has the following sequence: 5′[…]3′ (SEQ. ID NO:17).
Dissociation-reassociation Analysis. Extracts were incubated with various concentrations of peptides or fusion proteins, and ^32P-labeled GAS oligonucleotide probe in gel shift buffer was then added to promote the formation of protein-DNA complex followed by mobility shift analysis.
Dimerization of Stat91 Involves Phosphoryrosyl Peptide and SH2 Interactions. Based on the results described above, we devised a dissociation-reassociation assay in the absence of guanidium hydrochloride to explore the possible nature of interactions involved in dimer formation (FIG. 20). When the short and the long forms of a homodimer are mixed with a dissociating agent (e.g., a peptide containing the putative dimerization domain), the subunits of the dimer should dissociate (in a concentration dependent fashion) due to the interaction of the agent with the dimerization domain(s) of the protein. […] At high concentration of the dissociating agent, subunits of the dimer may not be able to re-form and no DNA-protein complexes would be detected (FIG. 20).

Stat84 and Stat91L homodimers, sequence (P42224 2-712 limits assumed): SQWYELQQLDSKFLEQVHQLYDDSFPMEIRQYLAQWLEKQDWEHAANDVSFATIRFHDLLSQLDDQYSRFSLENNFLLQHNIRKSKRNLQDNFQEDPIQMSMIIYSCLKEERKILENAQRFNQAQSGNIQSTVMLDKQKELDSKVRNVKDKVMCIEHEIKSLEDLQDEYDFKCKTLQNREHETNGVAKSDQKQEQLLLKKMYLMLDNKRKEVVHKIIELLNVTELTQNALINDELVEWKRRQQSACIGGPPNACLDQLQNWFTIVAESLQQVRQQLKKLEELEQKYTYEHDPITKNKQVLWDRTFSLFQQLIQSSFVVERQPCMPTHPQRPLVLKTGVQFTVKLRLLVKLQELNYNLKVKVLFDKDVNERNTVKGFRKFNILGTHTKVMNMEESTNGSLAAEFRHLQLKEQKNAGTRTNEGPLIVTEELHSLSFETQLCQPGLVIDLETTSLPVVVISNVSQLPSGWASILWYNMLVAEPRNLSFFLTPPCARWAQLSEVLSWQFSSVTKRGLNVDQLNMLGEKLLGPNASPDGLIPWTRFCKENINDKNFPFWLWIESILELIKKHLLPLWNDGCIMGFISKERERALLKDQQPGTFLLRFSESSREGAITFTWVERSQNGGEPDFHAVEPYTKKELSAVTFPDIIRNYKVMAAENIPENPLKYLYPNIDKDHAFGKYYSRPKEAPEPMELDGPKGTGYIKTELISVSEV

B1: GST-91SH2: GST fusion protein encoding amino acids 573 to 672 of Stat91 (protein)
chain: WNDGCIMGFISKERERALLKDQQPGTFLLRFSESSREGAITFTWVERSQNGGEPDFHAVEPYTKKELSAVTFPDIIRNYKVMAAENIPENPLKYLYPNID
modifications: left off: a dimerising Fc or GST
notes: GST fusion protein encoding amino acids 573 to 672 of Stat91
Question: Which “formation of heterodimer / exchange of subunits between Stat84 and Stat91L homodimers” value does the source give for B1 here?
Answer: Its value is “promoted the formation of a heterodimer”.
